How the values were obtained:
HLA-B*40:01 [1] = assay: IEDB peptide-MHC binding, purified MHC/competitive/radioactivity; filed as Kd, often an IC50 or EC50 that approximates it; ≥ and ≤ were set here for values at or beyond the usual limits of such assays
HLA-A*02:01 [2] = assay: IEDB peptide-MHC binding, purified MHC/direct/fluorescence; filed as Kd, often an IC50 or EC50 that approximates it; ≥ and ≤ were set here for values at or beyond the usual limits of such assays
HLA-A*02:01 [3] = assay: IEDB peptide-MHC binding, purified MHC/competitive/fluorescence; ≥ and ≤ were set here for values at or beyond the usual limits of such assays
HLA-A*26:01 = assay: IEDB peptide-MHC binding, purified MHC/competitive/radioactivity; filed as Kd, often an IC50 or EC50 that approximates it; ≥ and ≤ were set here for values at or beyond the usual limits of such assays
HLA-A*30:02 = assay: as above
HLA-A*24:02 = assay: as above
HLA-A*01:01 [4] = assay: as above
HLA-B*53:01 = assay: as above
HLA-A*69:01 = assay: IEDB peptide-MHC binding, purified MHC/direct/fluorescence; filed as Kd, often an IC50 or EC50 that approximates it; ≥ and ≤ were set here for values at or beyond the usual limits of such assays
HLA-B*40:01 [5] = assay: as above; details: source organism: Mycobacterium tuberculosis variant bovis
HLA-A*01:01 [6] = assay: as above
HLA-A*03:01 [7] = assay: as above
HLA-A*31:01 = assay: as above
HLA-A*11:01 = assay: as above; details: source organism: Coxiella burnetii
HLA-B*07:02 = assay: as above
HLA-B*58:01 = assay: as above; details: source organism: Mammarenavirus juninense
HLA-A*03:01 [8] = assay: IEDB peptide-MHC binding, purified MHC/competitive/radioactivity; filed as Kd, often an IC50 or EC50 that approximates it; ≥ and ≤ were set here for values at or beyond the usual limits of such assays; details: source organism: Dengue virus 3 Martinique/1243/1999
HLA-B*44:02 = assay: as above; details: source organism: Dengue virus 2 Jamaica/1409/1983
[9] = source organism: Dengue virus 3 Martinique/1243/1999
[10] = source organism: Mycobacterium tuberculosis
[11] = source organism: Dengue virus 2 Jamaica/1409/1983
[12] = source organism: Dengue virus 4 Philippines/H241/1956
[13] = source organism: Zaire ebolavirus
[14] = source organism: Dengue virus 1 Brazil/97-11/1997
[15] = source organism: Dengue virus 1 Singapore/S275/1990
[16] = source organism: Sudan ebolavirus
[17] = source organism: Vibrio parahaemolyticus
[18] = source organism: Mycobacterium tuberculosis variant bovis
[19] = source organism: Plum pox virus
[20] = source organism: Mammarenavirus guanaritoense
[21] = source organism: Mammarenavirus whitewaterense
[22] = source organism: Pseudomonas aeruginosa UCBPP-PA14

AEPDGPTPEL showed a Kd (HLA-B*40:01 [1]; [9]) of 10.7 nM.

In the case of ALAAATPMV, the Kd (HLA-A*02:01 [2]; [10]) is reported as 5.2 nM.

Work on ALFSSCPV yielded an IC50 (HLA-A*02:01 [3]; source organism: Mus musculus) of 291 nM.

ALLDLGWTI was tested, and the Kd (HLA-A*02:01 [2]; [10]) was 0.9 nM.

In the case of ATMTDDIGM, the Kd (HLA-A*26:01; [11]) is reported as 8340 nM.

With AVVIVGLHGV the IC50 (HLA-A*02:01 [3]; source organism: Human alphaherpesvirus 1 strain 17) was ≥ 50000 nM.

In the case of AWNFLEVEDY, the Kd (HLA-A*30:02; [12]) is reported as 85.3 nM.

AYVVIGILTL showed a Kd (HLA-A*24:02; [9]) of 938 nM.

With CSHHFHELV the Kd (HLA-A*01:01 [4]; [11]) was ≥ 23400 nM.

DVIPMVTQL was tested, and the Kd (HLA-A*26:01; [12]) was 112 nM.

DVVDRGWGN was tested, and the Kd (HLA-A*26:01; [12]) was ≥ 77900 nM.

Sequence EELPETMETL has a Kd (HLA-B*40:01 [1]; [9]) of 191 nM.

EFIDGISLGL showed a Kd (HLA-A*26:01; [12]) of 4720 nM.

For EGAFFLYDR, the IC50 (HLA-A*02:01 [3]; [13]) was ≥ 508000 nM.

EPSKGWNDW gave a Kd (HLA-B*53:01; [14]) of 1110 nM.

Work on ESEMIIPKIY yielded a Kd (HLA-A*01:01 [4]; [15]) of 6210 nM, a Kd (HLA-A*26:01; [15]) of 19900 nM and a Kd (HLA-A*30:02; [15]) of 11700 nM.

In the case of ETTKHAVSRG, the Kd (HLA-A*26:01; [14]) is reported as ≥ 69700 nM.

EVDSFSLGL was tested, and the Kd (HLA-A*01:01 [4]; [15]) was 10500 nM.

With FFLYDRLAS the IC50 (HLA-A*02:01 [3]; [16]) was 40000 nM.

FGVFTTNIW was tested, and the Kd (HLA-B*53:01; [11]) was 111 nM.

For FQLAAPSGF, the Kd (HLA-A*69:01; [17]) was ≥ 20000 nM and the Kd (HLA-A*02:01 [2]; [17]) was 9000 nM.

In the case of GEPDARYEI, the Kd (HLA-B*40:01 [5]) is reported as 70.2 nM.

GETAWDFGSV showed a Kd (HLA-B*40:01 [1]; [12]) of 388 nM.

GEYRLRGEAR gave a Kd (HLA-B*40:01 [1]; [11]) of 1900 nM.

With GMVPLHIPE the IC50 (HLA-A*02:01 [3]; [16]) was ≥ 103000 nM.

Sequence GSDGGLDDY has a Kd (HLA-A*01:01 [6]; source organism: Homo sapiens) of 58.1 nM and a Kd (HLA-A*69:01; source organism: Homo sapiens) of 1930 nM.

In the case of GSQPGGPLK, the Kd (HLA-A*03:01 [7]; [18]) is reported as 1570 nM.

With GTDAPCKIPF the Kd (HLA-A*01:01 [4]; [14]) was ≥ 44700 nM.

Work on GTMHQEIFR yielded a Kd (HLA-A*03:01 [7]; [19]) of 83.9 nM and a Kd (HLA-A*31:01; [19]) of 41.9 nM.

For GVQPSATGR, the Kd (HLA-A*03:01 [7]; [18]) was ≥ 20000 nM.

HPGAGKTKRY was tested, and the Kd (HLA-B*53:01; [11]) was ≥ 20200 nM.

HVTRGAVLM gave a Kd (HLA-A*26:01; [11]) of 4890 nM.

IAGGMLIACY gave a Kd (HLA-A*30:02; [14]) of 418 nM.

With IHLAIMAVF the Kd (HLA-A*24:02; [12]) was 71.9 nM.

With ILCGWHLLK the Kd (HLA-A*11:01) was 3.8 nM and the Kd (HLA-A*03:01 [7]; source organism: Coxiella burnetii) was 33.2 nM.

With ILQDMRNTI the Kd (HLA-A*02:01 [2]; source organism: Alto Paraguay hantavirus) was 7.6 nM.

Sequence IPYHIVNIV has a Kd (HLA-A*69:01; source organism: Homo sapiens) of 1340 nM and a Kd (HLA-B*07:02; source organism: Homo sapiens) of 3460 nM.

KCDICTDEY was tested, and the Kd (HLA-A*01:01 [6]; source organism: Homo sapiens) was 806 nM.

Work on KERMVTFKV yielded a Kd (HLA-B*40:01 [1]; [12]) of 5760 nM.

With KLDPTNTLW the Kd (HLA-B*58:01) was 66.9 nM.

KLLPDTAAV was tested, and the Kd (HLA-A*02:01 [2]; source organism: Amur virus) was 2.1 nM.

In the case of KLMSGKDVFY, the Kd (HLA-A*01:01 [4]; [9]) is reported as 1480 nM, the Kd (HLA-A*03:01 [8]) is reported as 15.9 nM and the Kd (HLA-A*30:02; [9]) is reported as ≥ 69700 nM.

KRHSTKYHL was tested, and the Kd (HLA-A*26:01; [20]) was ≥ 77900 nM, the Kd (HLA-A*24:02; [20]) was ≥ 60300 nM and the Kd (HLA-A*30:02; [20]) was ≥ 33300 nM.

For KYPNLNDLK, the Kd (HLA-A*01:01 [4]; [21]) was ≥ 41000 nM, the Kd (HLA-A*26:01; [21]) was ≥ 77900 nM and the Kd (HLA-A*30:02; [21]) was 9570 nM.

In the case of LETRAETWM, the Kd (HLA-B*40:01 [1]; [12]) is reported as 261 nM.

LGLITNTIA was tested, and the IC50 (HLA-A*02:01 [3]; [13]) was 35300 nM.

Sequence LIGLTARATW has a Kd (HLA-B*53:01; [14]) of 1810 nM.

In the case of LLMEGLKLL, the Kd (HLA-A*02:01 [2]; source organism: Mammarenavirus lassaense) is reported as ≤ 1 nM.

LPLFIFSLKD showed a Kd (HLA-B*53:01; [9]) of 2920 nM.

Work on LTEFQPHQL yielded a Kd (HLA-A*01:01 [4]; [14]) of 8760 nM.

LTEFQPHQLW gave a Kd (HLA-A*01:01 [4]; [14]) of 12900 nM and a Kd (HLA-B*53:01; [14]) of 990 nM.

With LYAVATTFIT the Kd (HLA-A*24:02; source organism: Dengue virus 2 Peru/IQT2913/1996) was ≥ 23500 nM.

In the case of MASTPASRY, the Kd (HLA-A*01:01 [6]; source organism: Influenza A virus (A/Fujian/411/02-like(H3N2))) is reported as ≥ 20000 nM.

MTTEDMLTVW showed a Kd (HLA-B*53:01; [9]) of 122 nM.

MVTGGIRRR was tested, and the Kd (HLA-A*03:01 [7]; [22]) was ≥ 20000 nM and the Kd (HLA-A*31:01; [22]) was 251 nM.

For NAGQFLSFA, the IC50 (HLA-A*02:01 [3]; [13]) was ≥ 121000 nM.

NEMVLLQME gave a Kd (HLA-B*44:02) of 907 nM.

NLSPETLVG was tested, and the IC50 (HLA-A*02:01 [3]; source organism: Vaccinia virus) was ≥ 170000 nM.

Work on NLTYVQLES yielded an IC50 (HLA-A*02:01 [3]; [13]) of 11000 nM.

For NPAVLRKLCI, the Kd (HLA-B*53:01; [14]) was 5200 nM.

Sequence NPQKENDQY has a Kd (HLA-B*53:01; [9]) of 2080 nM.

With NPTVDGITVI the Kd (HLA-B*53:01; [11]) was 2510 nM.

With NPVPVGNIY the Kd (HLA-B*07:02; source organism: Human immunodeficiency virus type 2 (ISOLATE D205,7)) was ≥ 40300 nM.

Reference: the Immune Epitope Database (IEDB)
